Experimental data published in paper PMC8207546.

How the values were obtained:
[1] = in vitro fusion of GFP-LC3 and LAMP2B-mCherry vesicles; conditions: glycan gained; control: non-O-GlcNAcylated His-GRASP55
[2] = LC3-LAMP2 co-IP with added recombinant GRASP55; conditions: glycan gained; control: non-O-GlcNAcylated His-GRASP55 (coexpressed with GST)

Substance	other: autophagosome-lysosome fusion activity [1]	other: bridging of LC3-LAMP2 interaction [2]
GRASP55: O-GlcNAcylated His-GRASP55	decreases	–
GRASP55: O-GlcNAcylated His-GRASP55 (coexpressed with GST-OGT)	–	decreases
